Test results: US5221606A, “Reagent and kit for enzyme assay comprising a substrate consonant with given enzyme to be assayed” (King's College London, priority 1987, dated 1993)

Substrate: CCC(=O)Oc1c(OC)cc(C=C2SC(=S)N(CC(=O)O)C2=O)cc1OC
Assay: assay of arylesterase in serum
Type: biochemical
Details: other: borate buffer pH 8, 37.0 °C
Procedure: The serum samples were diluted by a factor of 10 prior to the assay. The substrate solution and the diluted sera were then preincubated at 37° C. in a water bath. Aliquots (0.75 ml) of the substrate solution were then pipetted into small plastic tubes (2 ml capacity), and 0.05 ml samples of the sera were added to each of the substrate aliquots and shaken vigorously to ensure adequate mixing. A blank was run by substituting water (0.05 ml) for the serum. The reaction was stopped after 10 min by the addition of the stopping buffer (0.25 ml) [prepared by dissolving DABCO (22.4 g) in water (200 ml) and adjusting the pH to 10 by the addition of a little conc. hydrochloric acid. The resulting mixture was then made up to 1000 ml with acetone]. The absorption (A) was then measured at 529 nm and the enzyme activity calculated on the basis of an εmax =47,500. [formula] where t=time of incubation in hours

B1: arylesterase (Homo sapiens) (protein)
chain: MAKLIALTLLGMGLALFRNHQSSYQTRLNALREVQPVELPNCNLVKGIETGSEDLEILPNGLAFISSGLKYPGIKSFNPNSPGKILLMDLNEEDPTVLELGITGSKFDVSSFNPHGISTFTDEDNAMYLLVVNHPDAKSTVELFKFQEEEKSLLHLKTIRHKLLPNLNDIVAVGPEHFYGTNDHYFLDPYLQSWEMYLGLAWSYVVYYSPSEVRVVAEGFDFANGINISPDGKYVYIAELLAHKIHVYEKHANWTLTPLKSLDFNTLVDNISVDPETGDLWVGCHPNGMKIFFYDSENPPASEVLRIQNILTEEPKVTQVYAENGTVLQGSTVASVYKGKLLIGTVFHKALYCEL
notes: The serum samples were diluted by a factor of 10 prior to the assay; from tissue; host or cells: serum
B1 was tested, and the Km was 25 µM.
